Source: PMC11141940

Target: MADD with deletion of exon 30 (dex30), MAC-tagged (human) (UniProt Q8WXG6)
Test: affinity purification with mass spectrometry + proximity labelling; AP-MS and BioID with MAC-tagged MADD (wild-type or dex30) in Flp-In T-REx 293 cells; the text does not tell which of the two approaches gave this result (Figure 7)

fold change of relative abundance against wild-type MADD: 24 fold
Substance: ubiquitin-specific peptidase 9 X-linked (from UniProt Q93008 1-2554) (natural protein)
